Measured values taken from patent US20230129812A1, “COMPOSITIONS AND METHODS FOR TREATING PULMONARY HYPERTENSION” (Acceleron Pharma Inc., priority 2020, published 2023).
“Also recorded” adds a separate entry of the source.

Experiments:
BMP10 [1] = target: T1, BMP10 (Homo sapiens, UniProt O95393); experiment: A-204 Reporter Gene Assay (Example 13); assay type: cell-based
T1 sequence (O95393 317-424): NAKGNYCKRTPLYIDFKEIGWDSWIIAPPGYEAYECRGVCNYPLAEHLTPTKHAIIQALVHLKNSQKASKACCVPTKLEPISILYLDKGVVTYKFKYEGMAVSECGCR
Source text: (§1) In addition, an A-204 Reporter Gene Assay was used to evaluate the effects of ALK4-Fc:ActRIIB-Fc heterodimer and ActRIIB-Fc:ActRIIB-Fc homodimer on signaling by activin A, activin B, GDF11, GDF8, BMP10, and BMP9. Cell line: Human Rhabdomyosarcoma (derived from muscle). Reporter vector: pGL3(CAGA)12 (as described in Dennler et al, 1998, EMBO 17: 3091-3100). The CAGA12 motif is present in TGFβ responsive genes (PAI-1 gene), so this vector is of general use for factors signaling through Smads. An exemplary A-204 Reporter Gene Assay is outlined below. • Day 1: Split A-204 cells into 48-well plate. • Day 2: A-204 cells transfected with 10 ug pGL3(CAGA)12 or pGL3(CAGA)12(10 ug)+pRLCMV (1 ug) and Fugene. • Day 3: Add factors (diluted into medium+0.1% BSA). Inhibitors need to be pre-incubated with Factors for about one hr before adding to cells. About six hrs later, cells are rinsed with PBS and then lysed.
(§2) Following the above steps, a Luciferase assay was performed.

BMP9 [2] = target: T2, BMP9 (Homo sapiens, UniProt Q9UK05); experiment: A-204 Reporter Gene Assay (Example 13); assay type: cell-based
T2 sequence (Q9UK05 320-429): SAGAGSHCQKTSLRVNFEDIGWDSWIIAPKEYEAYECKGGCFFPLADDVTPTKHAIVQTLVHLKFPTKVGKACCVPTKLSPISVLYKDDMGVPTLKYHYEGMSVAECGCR
Source text: as §1, §2

activin B [3] = target: T3, activin B (Homo sapiens, UniProt P09529); experiment: A-204 Reporter Gene Assay (Example 13); assay type: cell-based
T3 sequence (P09529 293-407): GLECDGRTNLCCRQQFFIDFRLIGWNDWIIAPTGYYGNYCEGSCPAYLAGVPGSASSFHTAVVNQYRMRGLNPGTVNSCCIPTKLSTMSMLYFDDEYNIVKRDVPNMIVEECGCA
Source text: as §1, §2

GDF11 [4] = target: T4, GDF11 (Homo sapiens, UniProt O95390); experiment: A-204 reporter gene assay, pGL3(CAGA)12 luciferase; assay type: cell-based; settings: A-204 reporter gene assay
T4 sequence (O95390 299-407): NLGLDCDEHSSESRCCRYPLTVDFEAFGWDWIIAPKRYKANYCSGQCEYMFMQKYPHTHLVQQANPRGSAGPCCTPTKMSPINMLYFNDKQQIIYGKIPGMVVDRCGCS
Summary of the method: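 Human rhabdomyosarcoma A-204 cells transfected with SMAD-responsive pGL3(CAGA)12 luciferase reporter (optionally with pRLCMV). Ligand in medium + 0.1% BSA, preincubated ~1 h with Fc-fusion inhibitor before addition to cells; after ~6 h cells lysed and luciferase activity measured.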

GDF3 = target: T5, GDF3 (Homo sapiens, UniProt Q9NR23); experiment: Biacore ligand binding profile, ALK4-Fc:ActRIIB-Fc heterodimer vs homodimers, anti-Fc capture (Example 13, Table 13)
T5 sequence (Q9NR23 251-364): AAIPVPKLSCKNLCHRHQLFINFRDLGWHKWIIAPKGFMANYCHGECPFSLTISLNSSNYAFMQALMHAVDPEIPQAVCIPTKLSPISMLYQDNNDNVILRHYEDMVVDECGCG
Experimental: (§3) A Biacore™-based binding assay was used to compare ligand binding selectivity of the ALK4-Fc:ActRIIB-Fc heterodimeric complex described above with that of ActRIIB-Fc and ALK4-Fc homodimer complexes. The ALK4-Fc:ActRIeB-Fc heterodimer, […], and ALK4-Fc homodimer were independently captured onto the system using an anti-Fc antibody. Ligands were injected and allowed to flow over the captured receptor protein. Results are summarized in Table 13 below, in which ligand off-rates (kd) most indicative of effective polypeptides are denoted in bold.

activin A = target: T6, activin A (Homo sapiens, UniProt P08476); experiment: as above
T6 sequence (P08476 311-426): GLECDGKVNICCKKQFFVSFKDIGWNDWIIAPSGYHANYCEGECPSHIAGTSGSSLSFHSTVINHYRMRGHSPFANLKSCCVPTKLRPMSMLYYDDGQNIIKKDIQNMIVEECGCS
Experimental: as §3

BMP6 = target: T7, BMP6 (Homo sapiens, UniProt P22004); experiment: as above
T7 sequence (P22004 375-513): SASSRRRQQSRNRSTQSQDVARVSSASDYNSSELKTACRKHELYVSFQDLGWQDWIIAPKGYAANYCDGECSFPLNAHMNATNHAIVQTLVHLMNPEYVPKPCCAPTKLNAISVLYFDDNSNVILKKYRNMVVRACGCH
Experimental: as §3

BMP10 [5] = target: T1, BMP10; experiment: as above
Experimental: as §3

GDF11 [6] = target: T4, GDF11; experiment: as above
Experimental: as §3

BMP9 [7] = target: T2, BMP9; experiment: as above
Experimental: as §3

activin B [8] = target: T3, activin B; experiment: as above
Experimental: as §3

B1: ALK4-Fc:ActRIIB-Fc heterodimer: heteromeric complex of extracellular domains of human ActRIIB and human ALK4, each separately fused to an Fc domain with a linker (protein)
chain 1: GRGEAETRECIYYNANWELERTNQSGLERCEGEQDKRLHCYASWRNSSGTIELVKKGCWLDDFNCYDRQECVATEENPQVYFCCCEGNFCNERFTHLPEAGGPEVTYEPPPTAPTGGGTHTCPPCPAPELLGGPSVFLFPPKPKDTLMISRTPEVTCVVVDVSHEDPEVKFNWYVDGVEVHNAKTKPREEQYNSTYRVVSVLTVLHQDWLNGKEYKCKVSNKALPAPIEKTISKAKGQPREPQVYTLPPSRKEMTKNQVSLTCLVKGFYPSDIAVEWESNGQPENNYKTTPPVLKSDGSFFLYSKLTVDKSRWQQGNVFSCSVMHEALHNHYTQKSLSLSPGK
chain 2: SGPRGVQALLCACTSCLQANYTCETDGACMVSIFNLDGMEHHVRTCIPKVELVPAGKPFYCLSSEDLRNTHCCYTDYCNRIDLRVPSGHLKEPEHPSMWGPVETGGGTHTCPPCPAPELLGGPSVFLFPPKPKDTLMISRTPEVTCVVVDVSHEDPEVKFNWYVDGVEVHNAKTKPREEQYNSTYRVVSVLTVLHQDWLNGKEYKCKVSNKALPAPIEKTISKAKGQPREPQVYTLPPSREEMTKNQVSLTCLVKGFYPSDIAVEWESNGQPENNYDTTPPVLDSDGSFFLYSDLTVDKSRWQQGNVFSCSVMHEALHNHYTQKSLSLSPG
inhibition of BMP10 signaling (BMP10 [1]): significantly reduced
inhibition of BMP9 signaling (BMP9 [2]): significantly reduced
inhibition of activin B signaling (activin B [3]): potent inhibitors
inhibition of GDF11 signaling (GDF11 [4]): potent inhibitors
GDF3 binding (GDF3; Example 13): substantially reduced binding
ka (GDF3; ligand GDF3, Table 13): 3.4e+06 M⁻¹ s⁻¹
kd (GDF3; ligand GDF3, Table 13): 0.017 s⁻¹
activin A binding (activin A; Example 13): strong binding
ka (activin A; ligand Activin A, Table 13): 1.3e+07 M⁻¹ s⁻¹
kd (activin A; ligand Activin A, Table 13): 0.00015 s⁻¹
BMP6 binding (BMP6; Example 13): intermediate-level binding
ka (BMP6; ligand BMP6, Table 13): 2e+06 M⁻¹ s⁻¹
kd (BMP6; ligand BMP6, Table 13): 0.0055 s⁻¹
BMP10 binding (BMP10 [5]; Example 13): substantially reduced binding
ka (BMP10 [5]; ligand BMP10, Table 13): 5.6e+07 M⁻¹ s⁻¹
kd (BMP10 [5]; ligand BMP10, Table 13): 0.0041 s⁻¹
GDF11 binding (GDF11 [6]; Example 13): strong binding
ka (GDF11 [6]; ligand GDF11, Table 13): 3.8e+07 M⁻¹ s⁻¹
kd (GDF11 [6]; ligand GDF11, Table 13): 0.00011 s⁻¹
BMP9 binding (BMP9 [7]; Example 13): substantially reduced binding; also recorded: low or no observable affinity
kd (BMP9 [7]; ligand BMP9, Table 13): Transient*
activin B binding (activin B [8]; Example 13): enhanced binding to activin B compared with either homodimer
ka (activin B [8]; ligand Activin B, Table 13): 7.1e+06 M⁻¹ s⁻¹
kd (activin B [8]; ligand Activin B, Table 13): 4e-05 s⁻¹
